The source of these data is US20260183411A1, “TARGETING SORTILIN” (priority 2024, published 2026).

Where no end group is shown, it is not given here. [ ]: non-standard residue; d: D form. Cba = N[C@@H](CC1CCC1)C(=O)O; Tle = CC(C)(C)[C@H](N)C(=O)O

Series [1] can be described thus: Maximum tolerated dose (MTD) study. In kind it is in vivo, mouse. The settings on record: 10 mg/kg i.v. single dose. On the procedure:
BALB/c Nude mice, female, 6-8 weeks, weighing approximately 18-22 g were purchased from the Shanghai SLAC Laboratory Animal Co., LTD. MTD studies were conducted at WuXi AppTec and the care and use of animals was conducted in accordance with the regulations of the Association for Assessment and Accreditation of Laboratory Animal Care (AAALAC). Two MTD studies were performed (a) a low dose study with doses ranging from 0.1, 0.5, 1 and 3 mg/kg and (b) a high dose study with doses ranging from 3, 5, 10 mg/kg. Dosing volume was determined based on body weight (10 ul/g) and PDCs were dissolved in 25 mM Histidine 10% sucrose pH 7 and administered i.v. at a single dose at day 0. The treatment and observation were conducted up to 7 days and MTD was defined by ≥20% body weight loss. Body weights were measured daily, death and observed clinical signs were recorded.
Doses of 3, 5, and 10 mg/kg were administered. MTD was defined by ≥20% body weight loss and body weight measured daily.

In series [2] the target is T1, mouse SORT1 (76-753)-His (mouse, UniProt Q6PHU5 76-753).
T1 construct: range 76-753; Amine-coupled to CM5 chip for SPR
T1 sequence (looked up): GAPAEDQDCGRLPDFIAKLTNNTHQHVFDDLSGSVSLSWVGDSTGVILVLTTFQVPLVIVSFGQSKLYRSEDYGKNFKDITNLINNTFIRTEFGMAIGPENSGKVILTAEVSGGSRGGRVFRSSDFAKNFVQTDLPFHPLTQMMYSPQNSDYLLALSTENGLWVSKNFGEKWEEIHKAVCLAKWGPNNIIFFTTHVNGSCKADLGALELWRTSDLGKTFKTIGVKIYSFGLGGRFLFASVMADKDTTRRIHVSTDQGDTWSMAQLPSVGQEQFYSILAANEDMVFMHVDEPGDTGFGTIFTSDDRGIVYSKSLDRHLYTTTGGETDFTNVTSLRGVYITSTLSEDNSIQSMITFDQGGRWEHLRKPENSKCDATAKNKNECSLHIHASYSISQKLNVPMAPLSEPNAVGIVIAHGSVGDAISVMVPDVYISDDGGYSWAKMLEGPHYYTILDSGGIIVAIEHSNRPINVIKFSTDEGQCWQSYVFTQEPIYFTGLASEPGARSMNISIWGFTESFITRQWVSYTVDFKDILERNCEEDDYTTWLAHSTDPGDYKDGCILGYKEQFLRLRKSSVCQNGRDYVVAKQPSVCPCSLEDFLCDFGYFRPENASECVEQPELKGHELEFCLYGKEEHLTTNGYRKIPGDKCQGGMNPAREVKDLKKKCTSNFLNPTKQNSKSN
As to the kind of experiment: SPR (Biacore 8K), SORT1 on CM5 chip, siRNA-peptide conjugate as analyte, 1:1 model. On the procedure: (§1) SPR analysis was performed on Series S CM5 chips (Cytiva) using a Biacore 8K instrument (Cytiva). Sensorgrams were double-referenced by subtracting the response on both a reference flow cell and a blank sample. Human SORT1 (78-755)-His (Acrobiosystems), human SORT1 (78-755)-His(GenScript), mouse SORT1 (76-753)-His (R&D Systems), rat SORT1 (76-752)-His (GenScript), and cyno SORT1 (76-753)-His (GenScript) were diluted to 20-60 μg/mL in 10 mM sodium acetate pH 4.5 buffer and immobilized onto Series S CM5 chips using amine coupling at a flow rate of 10 μL/min for 45-100 s.
(§2) Ten start-up cycles and a blank cycle preceded each analysis run. The runs were performed by sequential injections of analyte (0-20 nM, 3-fold serial dilutions) with a 90 s association and 900 s dissociation at a flow rate of 30 μL/min, followed by two regeneration cycles with 2 M MgCl2 for 90 s at a flow rate of 10 μL/min. […] Five start-up cycles and a blank cycle preceded each analysis run. The runs were performed by sequential injections of analyte (0-25 nM) with a 150 seconds (s) association and 300 s dissociation at a flow rate of 30 μL/min, followed by a regeneration with 2 M MgCl₂ for 200 s at a flow rate of 10 μL/min. The kinetic rate constants (kₐ and kd) and the equilibrium binding constant (Kd) were calculated using a 1:1 kinetic binding model on the Biacore Insight Evaluation Software (Cytiva).
(§3) SPR analysis was performed on Series S CM5 chips (Cytiva) using a Biacore 8K instrument (Cytiva). Sensorgrams were double-referenced by subtracting the response on both a reference flow cell and a blank sample. The SPR analysis was conducted using four different SORT1 species: Human SORT1, Mouse SORT1, Rat SORT1, and Cyno SORT1. The samples were prepared according to the general procedure described above herein. The kinetic rate constants (ka and […]) and the equilibrium binding constant (Kd) were calculated using a 1:1 kinetic binding model on the Biacore Insight Evaluation Software (Cytiva).
For orientation: SPR reads the build-up and loss of mass on a sensor chip optically.

Series [3] addresses T2, rat SORT1 (76-752)-His (rat, UniProt O54861 76-752).
T2 construct: range 76-752; Amine-coupled to CM5 chip for SPR
T2 sequence (looked up): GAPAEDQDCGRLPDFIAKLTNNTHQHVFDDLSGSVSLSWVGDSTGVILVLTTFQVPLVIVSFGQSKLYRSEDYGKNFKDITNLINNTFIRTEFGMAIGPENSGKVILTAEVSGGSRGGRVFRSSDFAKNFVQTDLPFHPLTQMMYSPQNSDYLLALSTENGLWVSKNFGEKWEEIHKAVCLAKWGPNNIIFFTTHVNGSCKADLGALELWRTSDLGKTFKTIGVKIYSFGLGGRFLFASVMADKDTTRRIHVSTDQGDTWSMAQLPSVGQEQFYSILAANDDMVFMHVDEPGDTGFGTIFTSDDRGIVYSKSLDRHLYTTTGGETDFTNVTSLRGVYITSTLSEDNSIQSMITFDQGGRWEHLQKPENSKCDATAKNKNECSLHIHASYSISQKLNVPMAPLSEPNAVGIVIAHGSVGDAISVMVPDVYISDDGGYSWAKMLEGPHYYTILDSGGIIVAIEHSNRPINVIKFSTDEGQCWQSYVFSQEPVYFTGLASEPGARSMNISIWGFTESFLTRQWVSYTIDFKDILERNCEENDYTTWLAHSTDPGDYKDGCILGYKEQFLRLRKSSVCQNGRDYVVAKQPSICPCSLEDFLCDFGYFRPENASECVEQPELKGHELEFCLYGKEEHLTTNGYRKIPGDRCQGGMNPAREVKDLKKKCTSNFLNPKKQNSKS
Described as above. On the procedure: as §1, §2, §3

Series [4] has as its target T3, cyno SORT1 (76-753)-His (cyno, UniProt A0A2K5VHG2 74-751).
T3 construct: range 76-753; Amine-coupled to CM5 chip for SPR
T3 sequence: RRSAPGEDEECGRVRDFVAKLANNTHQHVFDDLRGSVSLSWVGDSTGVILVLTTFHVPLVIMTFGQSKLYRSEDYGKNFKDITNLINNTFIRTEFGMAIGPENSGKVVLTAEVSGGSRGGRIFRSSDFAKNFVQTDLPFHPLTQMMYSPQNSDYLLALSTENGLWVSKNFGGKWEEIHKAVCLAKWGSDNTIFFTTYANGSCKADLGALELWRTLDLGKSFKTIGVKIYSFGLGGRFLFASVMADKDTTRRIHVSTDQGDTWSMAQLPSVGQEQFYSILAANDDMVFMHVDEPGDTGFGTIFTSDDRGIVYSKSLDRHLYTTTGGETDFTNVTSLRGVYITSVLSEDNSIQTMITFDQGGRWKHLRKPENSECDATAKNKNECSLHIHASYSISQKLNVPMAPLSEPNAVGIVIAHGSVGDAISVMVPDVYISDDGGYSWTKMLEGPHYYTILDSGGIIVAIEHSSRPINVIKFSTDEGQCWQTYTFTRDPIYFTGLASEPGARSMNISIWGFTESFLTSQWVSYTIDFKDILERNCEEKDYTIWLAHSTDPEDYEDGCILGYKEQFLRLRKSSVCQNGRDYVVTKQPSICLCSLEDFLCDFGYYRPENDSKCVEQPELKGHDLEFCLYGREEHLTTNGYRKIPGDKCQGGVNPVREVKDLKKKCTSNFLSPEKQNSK
Described as above. On the procedure:
as §1, §2, §3

The target in series [5] is T4, SORT1 on cells (HEK293 cells transiently transfected with / overexpressing SORT1); SORT1-expressing MDA-MB-231 … (UniProt Q99523 78-831, limits assumed).
T4 sequence (looked up): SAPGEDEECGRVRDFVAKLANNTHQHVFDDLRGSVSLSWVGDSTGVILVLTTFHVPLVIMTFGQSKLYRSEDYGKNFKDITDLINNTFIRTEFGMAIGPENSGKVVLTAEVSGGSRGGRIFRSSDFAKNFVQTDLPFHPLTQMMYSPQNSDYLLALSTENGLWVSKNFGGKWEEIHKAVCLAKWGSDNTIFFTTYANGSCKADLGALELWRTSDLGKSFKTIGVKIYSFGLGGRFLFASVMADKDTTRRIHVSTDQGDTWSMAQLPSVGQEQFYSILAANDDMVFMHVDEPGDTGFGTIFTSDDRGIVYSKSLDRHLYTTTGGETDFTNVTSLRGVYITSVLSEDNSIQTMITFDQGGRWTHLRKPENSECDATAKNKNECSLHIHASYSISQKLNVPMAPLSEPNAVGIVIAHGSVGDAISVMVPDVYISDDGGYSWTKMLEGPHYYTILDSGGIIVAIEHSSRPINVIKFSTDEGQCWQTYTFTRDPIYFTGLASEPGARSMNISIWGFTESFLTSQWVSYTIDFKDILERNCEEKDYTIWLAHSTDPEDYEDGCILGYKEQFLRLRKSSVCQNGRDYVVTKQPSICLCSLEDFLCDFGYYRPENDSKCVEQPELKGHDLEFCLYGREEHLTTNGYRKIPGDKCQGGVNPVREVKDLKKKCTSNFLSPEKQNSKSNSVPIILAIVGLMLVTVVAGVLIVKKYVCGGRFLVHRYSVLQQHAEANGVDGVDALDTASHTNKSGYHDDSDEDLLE
As to the kind of experiment: cell-based or functional assay.

In the case of `CC[C@H](C)[C@@H]([C@@H](CC(=O)N1CCC[C@H]1[C@H](OC)[C@@H](C)C(=O)N[C@H](C)[C@@H](O)c1ccccc1)OC)N(C)C(=O)[C@@H](NC(=O)[C@H](C(C)C)N(C)C(=O)OCc1ccc(NC(=O)[C@H](CCCNC(N)=O)NC(=O)[C@@H](NC(=O)CCCC(=O)NCCC(=O)N(C)CC(=O)N(C)CC(=O)N(C)CC(=O)N(C)CC(=O)N[C@@H](CC(=O)O)C(=O)N[C@@H](CC(=O)O)C(=O)N2CCC[C@H]2C(=O)N[C@@H](CCCNC(=N)N)C(=O)N[C@@H](C)C(=O)N2CCC[C@H]2C(=O)N[C@@H](Cc2c[nH]c3ccccc23)C(=O)N2CCC[C@H]2C(=O)N[C@@H](C)C(=O)N[C@@H](CC(C)C)C(=O)N[C@@H](CCC(N)=O)C(=O)N[C@@H](CCCNC(=N)N)C(=O)N[C@@H](CC(C)C)C(=O)N[C@@H](C)C(=O)N[C@@H](CC(C)C)C(=O)N[C@@H](CCCNC(=N)N)C(=O)N[C@@H](CC(C)C)C(=O)O)C(C)C)cc1)C(C)C` [PRGN_RL_PDC], the toxicity result in series [1] is “mild toxicity”.

B1: SORT1 peptide 2 conjugate (peptide)
peptide: APRWDAPLRDPALRQ[Tle][Cba]
modifications: also: conjugated to siRNA targeting a housekeeping gene mRNA, linker and handle not given here
notes: also called SORT1 peptide 2 siRNA conjugate; Arb-SAR-Q15_PDC2
Broadly, the Kd is the constant that tells how readily two partners part at equilibrium. As to B1, the figures for the Kd in series [2], in series [3] and in series [4] were 8.56 nM, 14.6 nM and 4.81 nM, respectively.

B2: Peptide 2-GAPDH6-BCN (peptide)
peptide: XXXXXXAPRWDAPLRDPALRQXX
modifications: N-terminal 6-azidohexanoic acid joined by a triazole to hexyl-BCN on the 5' end of the sense strand of GAPDH siRNA; 1: (bAla); 2-5: (Sar); 21: (B13); 22: (G48)
For the molecule B2, the “GAPDH mRNA % knockdown compared to untreated cells (RT-qPCR), HEK293 + SORT1 - CQ” value (“GAPDH mRNA % knockdown” for short) in series [5] was determined as 47%.

B3: Peptide 2-GAPDH6-thiol (peptide)
peptide: XXXXXAPRWDAPLRDPALRQXX
modifications: not fully specified; N-terminal maleimide joined by a thioether to 6-mercaptohexanoic acid on the 5' end of the sense strand of GAPDH siRNA; 1: (bAla); 2-5: (Sar); 21: (B13); 22: (G48)
Turning to B3, in series [5], the “GAPDH mRNA % knockdown” value was 40%.

B4: SORT1 peptide 1 conjugate (peptide)
peptide: APRWDAPLRDPALRQLL
modifications: also: conjugated to siRNA, linker and handle not given here
notes: also called SORT1 peptide 1 siRNA conjugate
In the case of B4, the values for the dissociation constant Kd in series [2], in series [3] and in series [4] were 30.2 nM, 49.2 nM and 16.8 nM, respectively.

B5: Peptide 2-GAPDH6-SPDP (peptide)
peptide: CXXXXXAPRWDAPLRDPALRQXX
modifications: N-terminal Ac; Cys 1 side chain in a disulphide with SPDP on the 5' end of the sense strand of GAPDH siRNA; 2: (bAla); 3-6: (Sar); 22: (B13); 23: (G48)
In the case of B5, the “GAPDH mRNA % knockdown” value in series [5] was found to be 36%.
